Data on 1 substance can be found in US11844843.

pKd: −log10 of the molar value.

The test deals with recombinant human TfR1 (transferrin receptor protein 1) (human) (UniProt P02786). In words: Carterra LSA SPR, 25 C; IgG captured, hTfR1 as analyte; 1:1 fit.
Sequence of recombinant human TfR1 (transferrin receptor protein 1) (human) (P02786 89-760 limits assumed): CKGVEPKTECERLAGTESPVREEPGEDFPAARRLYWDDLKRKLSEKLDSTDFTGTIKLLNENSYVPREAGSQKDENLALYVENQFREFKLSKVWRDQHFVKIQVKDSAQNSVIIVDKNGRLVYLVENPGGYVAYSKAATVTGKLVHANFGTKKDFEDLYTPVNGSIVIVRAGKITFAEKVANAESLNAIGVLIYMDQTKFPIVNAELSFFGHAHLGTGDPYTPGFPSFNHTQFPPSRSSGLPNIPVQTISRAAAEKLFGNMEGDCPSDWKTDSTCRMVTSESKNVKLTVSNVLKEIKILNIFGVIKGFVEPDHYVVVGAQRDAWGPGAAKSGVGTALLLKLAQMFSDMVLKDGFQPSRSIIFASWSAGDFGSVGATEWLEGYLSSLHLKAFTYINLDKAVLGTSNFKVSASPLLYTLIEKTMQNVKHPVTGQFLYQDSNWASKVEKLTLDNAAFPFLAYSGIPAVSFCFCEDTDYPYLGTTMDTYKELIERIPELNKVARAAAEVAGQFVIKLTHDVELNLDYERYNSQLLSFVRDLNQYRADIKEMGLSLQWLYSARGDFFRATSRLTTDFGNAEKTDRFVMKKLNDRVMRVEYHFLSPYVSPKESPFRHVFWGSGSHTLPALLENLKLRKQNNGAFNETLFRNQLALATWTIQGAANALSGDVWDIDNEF

The term pKd denotes the negative decadic logarithm of the Kd, by convention in mol/L. As usually defined, the kon is the rate constant with which the complex forms. In the case of OKT9 mIgG (control anti-TfR1 antibody), the pKd is 9.27 and the kon worked out at 774000 M⁻¹ s⁻¹.
